PMC4449314
Several values for one entry are separate records, joined by “and”; a condition that tells them apart may be missing. Equal entries are not always repeated.

What was measured:
[1] = biological target: HA-tagged human DAP12 (full length, both native cysteines), in 293T cells (human), O43914; assay: non-reducing SDS-PAGE of disulfide-linked products after anti-HA IP; conditions: remark: other sources report otherwise
[2] = biological target: HA-tagged human DAP12 wild type, in vitro translated with ER microsomes (human), O43914; assay: as above; conditions: remark: other sources report otherwise

Row | stoichiometry N [1] | stoichiometry N [2] | Binder
1 | 2 and 3 and 4 | – | HA-tagged human DAP12 (full length, both native cysteines), in 293T cells, O43914 22-113 (natural protein) LRPVQAQAQSDCSCSTVSPGVLAGIVMGDLVLTVLIALAVYFLGRLVPRGRGAAEAATRKQRITETESPYQELQGQRSDVYSDLNTQRPYYK
2 | – | 3 and 4 | HA-tagged human DAP12 wild type, in vitro translated with ER microsomes, O43914 22-113 (natural protein, here or on the partner: 35S-methionine/cysteine labelled; 35S-methionine/cysteine labelled) LRPVQAQAQSDCSCSTVSPGVLAGIVMGDLVLTVLIALAVYFLGRLVPRGRGAAEAATRKQRITETESPYQELQGQRSDVYSDLNTQRPYYK
